This assay has as its target T1, NST1-GST fusion protein (Arabidopsis thaliana, UniProt Q84WP6 1-365).
T1 sequence (looked up): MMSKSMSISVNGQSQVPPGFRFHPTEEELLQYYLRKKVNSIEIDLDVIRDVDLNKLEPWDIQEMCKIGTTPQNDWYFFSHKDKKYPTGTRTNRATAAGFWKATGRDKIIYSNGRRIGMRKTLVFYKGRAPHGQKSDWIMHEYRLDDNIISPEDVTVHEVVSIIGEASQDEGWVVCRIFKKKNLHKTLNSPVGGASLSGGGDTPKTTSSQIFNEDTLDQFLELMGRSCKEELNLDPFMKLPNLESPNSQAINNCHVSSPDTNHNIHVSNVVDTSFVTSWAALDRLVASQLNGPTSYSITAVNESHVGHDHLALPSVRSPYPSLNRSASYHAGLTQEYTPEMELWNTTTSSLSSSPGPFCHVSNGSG
The experiment in a line: pull-down.

B1: SnRK2.3-6xHis fusion protein (enzyme, Arabidopsis thaliana, UniProt Q39193 1-361, looked up)
chain: MDRAPVTTGPLDMPIMHDSDRYDFVKDIGSGNFGVARLMRDKLTKELVAVKYIERGDKIDENVQREIINHRSLRHPNIVRFKEVILTPTHLAIIMEYASGGELYERICNAGRFSEDEARFFFQQLLSGVSYCHSMQICHRDLKLENTLLDGSPAPRLKICDFGYSKSSVLHSQPKSTVGTPAYIAPEVLLRQEYDGKIADVWSCGVTLYVMLVGAYPFEDPEEPRDYRKTIQRILSVKYSIPDDIRISPECCHLISRIFVADPATRISIPEIKTHSWFLKNLPADLMNESNTGSQFQEPEQPMQSLDTIMQIISEATIPAVRNRCLDDFMTDNLDLDDDMDDFDSESEIDIDSSGEIVYAL
With B1, the binding result is reported as “binds”.

B2: SnRK2.2-6xHis fusion protein (enzyme, Arabidopsis thaliana, UniProt Q39192 1-362, looked up)
chain: MDPATNSPIMPIDLPIMHDSDRYDFVKDIGSGNFGVARLMTDRVTKELVAVKYIERGEKIDENVQREIINHRSLRHPNIVRFKEVILTPSHLAIVMEYAAGGELYERICNAGRFSEDEARFFFQQLISGVSYCHAMQICHRDLKLENTLLDGSPAPRLKICDFGYSKSSVLHSQPKSTVGTPAYIAPEILLRQEYDGKLADVWSCGVTLYVMLVGAYPFEDPQEPRDYRKTIQRILSVTYSIPEDLHLSPECRHLISRIFVADPATRITIPEITSDKWFLKNLPGDLMDENRMGSQFQEPEQPMQSLDTIMQIISEATIPTVRNRCLDDFMADNLDLDDDMDDFDSESEIDVDSSGEIVYAL
On to B2, for which the binding result is recorded as “binds”.

B3: SnRK2.6-6xHis fusion protein (enzyme, Arabidopsis thaliana, UniProt Q940H6 1-362, looked up)
chain: MDRPAVSGPMDLPIMHDSDRYELVKDIGSGNFGVARLMRDKQSNELVAVKYIERGEKIDENVKREIINHRSLRHPNIVRFKEVILTPTHLAIVMEYASGGELFERICNAGRFSEDEARFFFQQLISGVSYCHAMQVCHRDLKLENTLLDGSPAPRLKICDFGYSKSSVLHSQPKSTVGTPAYIAPEVLLKKEYDGKVADVWSCGVTLYVMLVGAYPFEDPEEPKNFRKTIHRILNVQYAIPDYVHISPECRHLISRIFVADPAKRISIPEIRNHEWFLKNLPADLMNDNTMTTQFDESDQPGQSIEEIMQIIAEATVPPAGTQNLNHYLTGSLDIDDDMEEDLESDLDDLDIDSSGEIVYAM
Consider B3, for which the binding result is listed as “binds”.

The record behind these values is article PMC7865148 (Proceedings of the National Academy of Sciences of the …, 2021).
